Experimental findings from publication PMC12068740 are described below.

The experiment addresses Htz1(T46C)-2xFLAG (yeast H2A.Z with a cysteine probe) (yeast). Briefly: cross-linking; VivosX: disulfide cross-linking in living yeast cells with 180 uM 4-DPS for 20 min at 30 C; TCA fixation; non-reducing SDS-PAGE and anti-FLAG immunoblot, bands normalised to H4; WT cells (swc2 and swr1 deletion cells also tested, with fewer ZZ and AZ adducts). On the technique in general: Immunoblotting shows a protein as a band on a membrane.

“2xV5-Hta1(N39C) (yeast H2A with a cysteine probe) (natural protein)”: the percent of bulk H2A.Z in the H2A-to-H2A.Z cross-linked adduct (WT cells) amounted to 57%.

Consider “Htz1(T46C)-2xFLAG (yeast H2A.Z with a cysteine probe) (natural protein)”, for which the percent of bulk H2A.Z in the H2A.Z-to-H2A.Z cross-linked adduct (WT cells) was found to be 12%.
